Measurements reported in the nanobody polyreactivity screen of Harvey et al. (2022).

test: yeast display, Sf9 membrane polyspecificity reagent, FACS + sequencing; frameworks hold sequencing errors
Method in brief: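 Genes from sorted yeast were amplified by colony PCR, read by MiSeq 2 × 250 sequencing and filtered on CDR length. These cells carried a synthetic nanobody library in Saccharomyces cerevisiae BJ5465 and were sorted by FACS into low and high (top ~1%) gates on anti-HA and streptavidin fluorescence. Polyreactivity is labelled according to the gate of origin.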

Sequence	polyreactivity (PSR sort gate)
QVQLVESGGGLVQAGCSRRLSWAASGSTFPDYVMGWDRQAPGKERELVAAISSIGGSTYYADSVKGRFTISRDNAKNTVYLQMNSLKPEDSAVYYCAAENSYFYPFDYWGQGTQVTVSS	low polyreactivity
QVQLVESGGGLVQAGCSVRLSCAASGSFFVLNSMGWYRQAPGKERELVAAIDESGGGTYYADSVKGRFTISRDNAKNTVYLQMNSLKPEDTAVYYCAADTLAPRAYDYWGQGTQVTVSS	low polyreactivity
QVQLVESGGGLVQAGGCLRLSCAASGFIFDSNAMGWYRQAPGKERELVAAISRRGGSTYYADSVKGRFTISRDNAKNTVYVHMNSLKPEYTSVYYCNAEYGSHVKYGYWGQGTQVTVSS	high polyreactivity
QVQLVESGGGLVQAGGCLRLSCAASGFIFRRNALGWYSEAPGKERELVAAMGSRGTATDYADSVKGRFTISRDNAKKTVYLQMNRLNPEDTAVDYCAKSVVAWGPNFRPNHTRGYYWGQGTQATVSS	low polyreactivity
QVQLVESGGGLVQAGGCLRLSCAASGLIFIKYTMGWYRQAPGKERELVAVISGSGGSTYYADSVKGRFTISRDNAKNTVYLQMNSLKPEDTAVYYCAARSYALGYGGGYWGQGTQVTVSS	high polyreactivity
QVQLVESGGGLVQAGGCLRLSCAASGRTFYRNVMGWYRQAPGKEREWVGAISSRGGSTYYADSVKGRFTISRDNAKNTVYLQMNSLKPEDTAVYYCAAEGTYYGSDYWGQGTQVTVSS	high polyreactivity
QVQLVESGGGLVQAGGCLRLSCAASGSTFPRNAMGWYRQAPGKERELVATITSSGGGTYYADSVKGRFTISRDNAKNTVYLQMNILKPEDTAVYYCNADGPAGDAFDYCGQGTQVTVSS	low polyreactivity
QVQLVESGGGLVQAGGCLRLSCAASGSTFRYYAMGWYRQAPGKERELVAAIYGGGTTYYADSVKGRFTISRDNAKNTVYLQLNSLKPEDTAVYYCAASILFSYYGRDDYWGQGTQVTVSS	low polyreactivity
QVQLVESGGGLVQAGGCLRLSCAASGSTFYVYDMGWYRQAPGKERELVAAMSKRRGTTYYADSVKGRFTISRDNAKNTVYLQMNSLKPEDTAVYYCAAVFRSPSAGYQGGYWGQGSQVTVSS	high polyreactivity
QVQLVESGGGLVQAGGFLRLSCASSGSTFIYYAMGWYREAPGKERELVAAISWSGGRTYYADAVKGRFTISRDNAKNTVYLQMTSLKPEDTAVDYCAAESYYSDGYPGVDYWGQATQVTVSS	high polyreactivity
QVQLVESGGGLVQAGGGRRGSGAAAGSIFAWYAMGWYRQAPGTERELVATITWSGGSTYYADSVKGRFTISRDIAKNTVYLQMNSLKREDTAVYYCAAEVVGIWYDLWYQGDYWGQGTQVTVSS	low polyreactivity
QVQLVESGGGLVQAGGILRISCAASGRTFASNAMGWYRRAPGKERELVAAMSSSGGRTYYADSVKGRITISRDNAKNTVYLQMNSLKPEYTPVFYCAKVGPVYKYDYWGQGTQVTVSS	high polyreactivity
QVQLVESGGGLVQAGGILRLICAASGITFVSYGMVWYRQAPRKERELVAAITRSGGSTYYADSVKGRFTISRDNAKNTVYLQMNSLKPDDTAVYYCNARTRYASKGGGARWDSYGYWGQGTQVTVSS	high polyreactivity
QVQLVESGGGLVQAGGILRLICAASGRTFRYNAMGWYIQAPGKERELVASINSRGDSTYYADSVKGRFTISRDNAKNTVYLQMNSLKPEDTAVYYCNKRIGVGAYYVRYGYWGQGTQVTVSS	high polyreactivity
QVQLVESGGGLVQAGGILRLICDASGFIIGYYAMGWYRQAPGKERELVAAISKSGGRTRYADSVKGRFTISRDNAKNTVYLQMNSLKPEDTAVYYCATYDPARSTQGYDYWGQGTQVTVSS	high polyreactivity
QVQLVESGGGLVQAGGILRLSAASGSTLAGNTMGWYRQAPGKERELVAAINDSGGSTYYADSVKGRFTISRDNAKNTVYLQMNSLKPEDTAVYYCNADGSAYIEDGYDYWGQGTQVTVSS	low polyreactivity
QVQLVESGGGLVQAGGILRLSCAAAGGTLYYYMGWYRQAPGKESEFVAAINIRGDSTYYADSVKGRFTISRDNAKNTVYLQMNSLKPEDTAVYYCAADLPRRSAHYYYWGQGTLVTVSS	low polyreactivity
QVQLVESGGGLVQAGGILRLSCAASGFIFAYYAMGWYRQAPGKERELVAAITRRGGSTSYADSVKGRFTISRDNAKNTVYLQMNSLKPEDTAVYYCNAVSKYDYGYWGQGTQVTVSS	high polyreactivity
QVQLVESGGGLVQAGGILRLSCAASGFIFRRYAMGWYRQEPGKERELVAAINYSGGSTYYADSVKGRFTISRDNAKNTVYLKMNSLKPEDTAVYYCAAGSRRGIDPGSDYWGQGNQVTVSS	low polyreactivity
QVQLVESGGGLVQAGGILRLSCAASGFIFVRYAMGWYRQAPGKERELVAAISWRGGSTYYADSVKGRFTISRDNAKNTVYLQMNSLKPEDTAVFYCSAVTWVHRYSRFHPFVAFDYWGQGTQVTVSS	high polyreactivity
QVQLVESGGGLVQAGGILRLSCAASGFTFTRNAKGRYRQAPGKERELVAAISSGGRTYYADSVKGRFTISRDNAKNTVYLQMNSLKPEDTAVYYCPTTIWGPVEGYDYWGQGTQETVSS	high polyreactivity
QVQLVESGGGLVQAGGILRLSCAASGIIFYYYAMGWYRQAPGKEMELVAGIRARGGITYYADSVKGRFTISRDNAKNTVYLLMNSLKPVDTAVYYCAKSTRPVSGVPDGPLYEYWGQGTQVTVSS	low polyreactivity

Sequence	polyreactivity (PSR sort gate)
QVQLVESGGGLVQAGGILRLSCAASGLIFKYNAMGWYRQAPGKERELVAAISTSGGSTYYADSVKGRFTISRDNAKNTVYLQMNSLKPEDTAVYYCNVAYIKTRLFRPYDYWGQGTQVTVSS	high polyreactivity
QVQLVESGGGLVQAGGILRLSCAASGLTFAKYAMGWYRQAPGKERELVAAITKSSGSTYYADSVKGRFTISRDNAKNTVYFQMNSLKPEDTAVYYCAAGIYAFRRHREEYHYWGQGTQVTVSS	high polyreactivity
QVQLVESGGGLVQAGGILRLSCAASGLTFYYYSMGWYRQAPGKERELVAAINSSGGITFYADSVKGRFTISRDNAKNTVYLQMNSLKPEDTAVYYCAAGGRSKRYGYWGQGTQVTVSS	low polyreactivity
QVQLVESGGGLVQAGGILRLSCAASGNAMGWYRQAPGKERELVATINRSGGRTYYADSVKGRFTISRDNAKNTVYLQMNSLKPEDTAVYYCATEGRWPNASYGDYDYWGQGTQVSVSS	low polyreactivity
QVQLVESGGGLVQAGGILRLSCAASGNIFDRYAMGWYSQAPGKERELVAGMTWSGGSTYYADSVKWRFTISRDNAKNTVYLQMNSLKPEDTAVYYCGQANYYWGQGTQVTVSS	low polyreactivity
QVQLVESGGGLVQAGGILRLSCAASGRIFRYNAMGWSRQAPGKERELVAAISSSGSSTYYADSVKGRFTISRDNAKNTVYLQMNSLKPADTAVYYCNARIPSRYYYQYDYWGQGTQVTVSS	high polyreactivity
QVQLVESGGGLVQAGGILRLSCAASGRIFSRYVMGWYRQAPGKEREFVASITWSGSSTYYADSVKGRFTISRDNAKNTVYLQMNSLKPEDTAVYYCAALGLLSPSPWGTHISEYDSWGQGTQVTVSS	low polyreactivity
QVQLVESGGGLVQAGGILRLSCAASGRNFVHYAMGWYRQAPGKERELVAAISHSGGRTYYADSVKGRFTMSRDYAQNTVYLQMNSLKPEDTAVYYCNVRGSPAGTGLLDYWGQGTQVTVSS	high polyreactivity
QVQLVESGGGLVQAGGILRLSCAASGRTFKYYAMGWYRQAPGKERELVATITWSGTSTNFADSVKGRFTISRDNAKNTVYLQMNSLKPEDTAVYYCAARSKRRNYDYWGQGTQVTVSS	high polyreactivity
QVQLVESGGGLVQAGGILRLSCAASGRTFNSNAMGWYRQAPGKERELVAAITGGGGRTYYADSVKGRFTISRDNAKNTVYLQMNSVKPEDTAVYYCYAARWYRGYDYWGQVTQVTVSS	high polyreactivity
QVQLVESGGGLVQAGGILRLSCAASGRTFQGNAMGWSRQAPGKERELVAVIDSGTSTDYADSVKGRFTISRDNAKNTVYLQMNSLKPEDTAVYYCAADGALGYNLRYDYWGQGTQVTVSS	low polyreactivity
QVQLVESGGGLVQAGGILRLSCAASGRTFSWNAMGWYRQAPGKERELVAAISNSGGSTYYADSVKGRFTISRDNAKNTVFLQMNSLKPEDTAVYYCAVYRYYGFSLWYDYWGQGTQVTVSS	low polyreactivity
QVQLVESGGGLVQAGGILRLSCAASGSIFDVYAMGWYRQAPGKERELVAAINRGGSTNYADSVKGRFTISRDNAKNTVYLQMNCLKPEDTAVYYCAADIVWYVYNGYYWIFDYWGQGTQVTVSS	high polyreactivity
QVQLVESGGGLVQAGGILRLSCAASGSIFEWYAMGWYRQAPGKEREFVAAINSGGSTYYADSVKGRFTISRDNAKNTVYLQMNSLKPEDTAVYYCNKVSYGYSTYGYWGQGTQVTVSS	low polyreactivity
QVQLVESGGGLVQAGGILRLSCAASGSIFNGYAMGWYRQSPGKERELVAAISWNGGSTYYADSVKGRFTISRDNAKNTFYLLMNSLKPEDTAVYYFAAGGYYDSRTYYYWGQGTQVSVSS	high polyreactivity
QVQLVESGGGLVQAGGILRLSCAASGSIFPFNAMGWYRQAPGKERDLVAAITRSGGSTYYADSVKGRFTISRDNAKNTVYLQMNSLKPEDTSVYYCATDPEWPLPAYYYWGQGTQVTVSS	low polyreactivity
QVQLVESGGGLVQAGGILRLSCAASGSIFRQYARGWYRQAPGKERAFVAAITRRGGSTRYADSVKGRFTISRDNAKNTVYLQMNSLKPEDSAVEYCAARGVPGLHRYYYWGQGTQVTVSS	high polyreactivity
QVQLVESGGGLVQAGGILRLSCAASGSIFSQYAMGWYRQAPGKERELVATISWNGGRTYYADSVKGRFTISRDNAKNTVYLELNSLKPEDTAVYYCAARYGGVPYYYWGQGTQVTVSS	high polyreactivity
QVQLVESGGGLVQAGGILRLSCAASGSIFYWSTMGWYIQAPGKERELVAAISSIDGNTYYADSVKGRFTISRDNAKNTVYLQMNSLKPEDTAVYYCAAAYYNTDYYYWGQGTQVTVSS	low polyreactivity
QVQLVESGGGLVQAGGILRLSCAASGSTFAANAMGWYRQAPGKERELVAAITSSGGSTYYADSVKGRFTISRDNAKNTVYLQMNSLKPEDTAVYYCNKDIERYVRIYYSWGQGTQVTVSS	low polyreactivity
QVQLVESGGGLVQAGGILRLSCAASGSTFAQNAMGWYRQAPGKEREFVAAITGTVGSTYYADSVKGRFTISRDNAKNTVYLQMNSLKPEDTAVFYCNTRGFNGRVYPYDYWGQGTQVTVSS	low polyreactivity
